Changes are numbered by the printed parent chain.
B1: Human gp130-Fc (R&D Systems, Cat. No. 671-GP) (Fc fusion, UniProt P40189 23-619, looked up)
chain: ELLDPCGYISPESPVVQLHSNFTAVCVLKEKCMDYFHVNANYIVWKTNHFTIPKEQYTIINRTASSVTFTDIASLNIQLTCNILTFGQLEQNVYGITIISGLPPEKPKNLSCIVNEGKKMRCEWDGGRETHLETNFTLKSEWATHKFADCKAKRDTPTSCTVDYSTVYFVNIEVWVEAENALGKVTSDHINFDPVYKVKPNPPHNLSVINSEELSSILKLTWTNPSIKSVIILKYNIQYRTKDASTWSQIPPEDTASTRSSFTVQDLKPFTEYVFRIRCMKEDGKGYWSDWSEEASGITYEDRPSKAPSFWYKIDPSHTQGYRTVQLVWKTLPPFEANGKILDYEVTLTRWKSHLQNYTVNATKLTVNLTNDRYLATLTVRNLVGKSDAAVLTIPACDFQATHPVMDLKAFPKDNMLWVEWTTPRESVKKYILEWCVLSDKAPCITDWQQEDGTVHRTYLRGNLAESKCYLITVTPVYADGPGSPESIKAYLKQAPPSKGPTVRTKKVGKNEAVLEWDQLPVDVQNGFIRNYTIFYRTIIGNETAVNVDSSHTEYTLSSLTSDTLYMVRMAAYTDEGGKDGPEFTFTTPKFAQGEIE
notes: Bought fusion protein; also called gp130-Fc chimera; Fc part of the bought chimera not given, not described
B2: M10 (antibody, V domains shown)
VH: QVQLVQSGAEVKKPGSSVKVSCKASGGTFSSYAISWVRQAPGQGLEWMGGIIPIFGNANYAQKFQGRVTITADESTSTAYMELSSLRSEDTAVYYCARYGAKGLLDYWGQGTLVTVSS
VL: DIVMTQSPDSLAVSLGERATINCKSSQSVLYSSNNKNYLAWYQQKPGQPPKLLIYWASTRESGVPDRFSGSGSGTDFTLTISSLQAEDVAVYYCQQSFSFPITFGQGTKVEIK
notes: Tested as full-length human IgG1; also called OSMM10; H2/L2
B3: M9 (antibody, V domains shown)
VH: EVQLVQSGAEVKKPGESLKISCKGSGYSFTSYWISWVRQMPGKGLEWMGIIYPGDSYTRYSPSFQGQVTISADKSISTAYLQWSSLKASDTAMYYCARVPVSPAYLDYWGQGTLVTVSS
VL: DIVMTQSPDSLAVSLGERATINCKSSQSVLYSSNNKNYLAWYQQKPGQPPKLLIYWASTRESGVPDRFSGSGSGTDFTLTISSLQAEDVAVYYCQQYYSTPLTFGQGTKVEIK
notes: Tested as full-length human IgG1; also called OSMM9
B4: M6 (antibody, V domains shown)
VH: B3 VH with V99G, P100S, S102F, P103E, L106F
VL: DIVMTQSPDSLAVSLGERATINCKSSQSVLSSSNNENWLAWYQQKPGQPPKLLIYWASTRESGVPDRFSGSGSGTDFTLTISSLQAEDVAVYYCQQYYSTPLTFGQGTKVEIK
notes: Tested as full-length human IgG1; also called OSMM6; H14/L12
B5: M71 (antibody, V domains shown)
VH: B3 VH
VL: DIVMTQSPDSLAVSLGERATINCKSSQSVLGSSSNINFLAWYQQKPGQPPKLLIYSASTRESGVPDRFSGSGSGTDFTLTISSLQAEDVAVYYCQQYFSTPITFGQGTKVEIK
notes: Human IgG1; also called H17/L180
B6: M5 (antibody, V domains shown)
VH: EVQLVQSGAEVKKPGESLKISCKGSGYSFTSYWIGWVRQMPGKGLEWMGIIYPGDSDTRYSPSFQGQVTISADKSISTAYLQWSSLKASDTAMYYCARGFGASYLDYWGQGTLVTVSS
VL: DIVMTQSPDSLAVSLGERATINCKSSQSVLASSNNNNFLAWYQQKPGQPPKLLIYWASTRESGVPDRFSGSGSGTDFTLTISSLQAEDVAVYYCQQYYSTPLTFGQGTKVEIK
notes: Tested as full-length human IgG1; also called OSMM5; H135/L111

Tests used:
[1] = target: T1, human OSM (recombinant, mammalian-cell derived, OSMN1-1) (human, UniProt P13725 26-221); assay: SPR competition, hOSM captured on immobilized M2 (competitor), sample at 300 nM
T1 construct: Precursor and mature (amino acids 1-184) forms were both expressed in HEK 293; also called hOSM; human oncostatin M
T1 sequence: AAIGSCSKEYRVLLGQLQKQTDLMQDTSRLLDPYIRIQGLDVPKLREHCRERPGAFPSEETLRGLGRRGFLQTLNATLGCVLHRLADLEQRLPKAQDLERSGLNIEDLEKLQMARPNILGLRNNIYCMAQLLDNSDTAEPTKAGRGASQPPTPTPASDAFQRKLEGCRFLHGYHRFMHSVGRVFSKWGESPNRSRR
Description: (§1) The biosensor surface was prepared by coupling each test mAb to the carboxymethylated dextran surface of a CM-5 chip (Biacore, Cat# BR-1000-14) following the manufacturer's instructions. Approximately 4,000-15,000 RU (response units) of each test mAb were immobilized in one the instrument's four flow cells. Competition experiments were performed at 25 ° C. in running buffer (DPBS+0.005% P20+3 mM EDTA). Human OSM (in-house, OSMN1-1) was diluted to 30 nM in running buffer and injected at 3 μl/min for 3 minutes over each of the flow cells with immobilized mAb. […] The chip surface was regenerated by two 12-second pulses of 100 mM H3PO4 (Sigma, Cat# 7961) at 50 μl/min. The collected data were processed using BIAevaluation software version 3.2 (Biacore). First, the sensorgrams were aligned upon injection of human OSM. […] Flow-cell (Fc1, etc.) immobilized mAbs appear along the horizontal sample rows of Table 10.

[2] = target: T1, human OSM (recombinant, mammalian-cell …); assay: SPR competition, hOSM captured on immobilized M54 (competitor), sample at 300 nM
Description: as §1

[3] = target: T1, human OSM (recombinant, mammalian-cell …); assay: SPR competition, hOSM captured on immobilized M69 (competitor), sample at 300 nM
Description: as §1

[4] = target: T1, human OSM (recombinant, mammalian-cell …); assay: SPR competition, hOSM captured on immobilized M71 (competitor), sample at 300 nM
Description: as §1

[5] = target: T1, human OSM (recombinant, mammalian-cell …); assay: SPR competition, second chip, hOSM captured on immobilized M2 (competitor), sample at 300 nM
Description: as §1

[6] = target: T1, human OSM (recombinant, mammalian-cell …); assay: SPR competition, second chip, hOSM captured on immobilized M55 (competitor), sample at 300 nM
Description: as §1

[7] = target: T1, human OSM (recombinant, mammalian-cell …); assay: SPR competition, second chip, hOSM captured on immobilized M64 (competitor), sample at 300 nM
Description: as §1

[8] = target: T2, Cynomolgus monkey (Macaca fascicularis) OSM, recombinant, in-house (cynomolgus monkey, UniProt P13725 26-221 (human entry), limits assumed); assay: SPR (Biacore), KD for cyno OSM over KD for human OSM
T2 construct: His/AviTag construct expressed in HEK 293; also called Cyno OSM; cyno OSM
T2 chain: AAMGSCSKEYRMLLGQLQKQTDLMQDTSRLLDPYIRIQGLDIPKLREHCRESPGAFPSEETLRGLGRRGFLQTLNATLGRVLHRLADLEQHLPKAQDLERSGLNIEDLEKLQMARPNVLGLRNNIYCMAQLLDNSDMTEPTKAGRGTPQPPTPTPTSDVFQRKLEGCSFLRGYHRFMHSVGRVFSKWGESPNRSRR
Description: (§2) The binding affinities were measured using Surface Plasmon Resonance (SPR) with a Biacore 3000 optical biosensor (Biacore) using human or Cyno OSM constructs as described. […] Approximately 19,000 RU (response units) of anti-OSM antibody were immobilized in each of four flow cells. The kinetic experiments were performed at 25° C. in running buffer (DPBS+0.005% P20+3 mM EDTA). Serial dilutions Human and Cyno OSM ECD from 100 nM to 0.412 nM were prepared in running buffer. About 200 RU of mAb were captured on flow cells 2 to 4 of the sensor chip. Flow cell 1 was used as reference surface. Capture of mAb was followed by a three-minute injection (association phase) of antigen at 50 μl/min, followed by 10 minutes of buffer flow (dissociation phase). The chip surface was regenerated by two pulses of 18-second injections of 100 mM H3PO4 (Sigma, Cat. No. 7961) at 50 μl/min.
(§3) The collected data was processed using the BIAevaluation software (Biacore, version 3.2). First, double reference subtraction of the data was performed by subtracting the curves generated by buffer injection from the reference-subtracted curves for analyte injections. Kinetic analysis of the data was performed using 1:1 binding model with global fit. The result for each mAb was reported in the format of Ka (On-rate), Kd (Off-rate) and KD (affinity constant).

[9] = target: T1, human OSM (recombinant, mammalian-cell …); assay: SPR (Biacore), mAb captured by anti-Fc, OSM as analyte
Description: as §2, §3

[10] = target: T2, Cynomolgus monkey (Macaca fascicularis) …; assay: as above
Description: as §2, §3

[11] = target: T1, human OSM (recombinant, mammalian-cell …); assay: cell-based or functional assay
[12] = target: T1, human OSM (recombinant, mammalian-cell …); assay: cell-based or functional assay; remark: listed apart in the source
[13] = target: T3, native human Oncostatin M (macrophage-derived) (human, UniProt P13725 26-221, limits assumed); assay: cell-based or functional assay
T3 sequence: T1 sequence

[14] = target: T4, CHO cell-derived recombinant human oncostatin M (in-house) (human, UniProt P13725 26-221, limits assumed); assay: cell-based or functional assay
T4 sequence: T1 sequence

[15] = target: T5, CHO cell-derived recombinant cynomolgous monkey oncostatin M (in-house) (cynomolgus monkey, UniProt P13725 26-221 (human entry), limits assumed); assay: cell-based or functional assay
T5 chain: T2 chain

Binder	Binding Level (RU) [1] [RU]	Binding Level (RU) [2] [RU]	Binding Level (RU) [3] [RU]	Binding Level (RU) [4] [RU]	Binding Level (RU) [5] [RU]	Binding Level (RU) [6] [RU]	Binding Level (RU) [7] [RU]	KD ratio Cyno/Human [8]	Kd [9] [nM]	koff [9] [s⁻¹]	kon [9] [M⁻¹ s⁻¹]	Kd [10] [nM]	koff [10] [s⁻¹]	kon [10] [M⁻¹ s⁻¹]	pSTAT3 inhibition EC50 (A375 cells, 5 ng/ml hOSM) [11] [ng/ml]	IC50, neutralization of OSM-induced STAT3 phosphorylation in NHLF cells (2 ng/ml OSM) [12] [ng/mL]	EC50, increase of proteoglycan synthesis in macrophage-chondrocyte co-culture [13] [ng/mL]	IC50, neutralization of OSM suppression of A375-S2 proliferation (BrdU) [14] [ng/mL]	IC50, neutralization of OSM suppression of A375-S2 proliferation (BrdU) [15] [ng/mL]
B1	319	17	20	29	251	25	18	–	–	–	–	–	–	–	–	–	–	–	–
B2	–	–	–	–	–	–	–	18.1	1.05	6.3e-05	60200	18.9	0.00101	53300	–	–	–	–	–
B3	–	–	–	–	–	–	–	0.6	1.22	8.1e-05	66300	0.73	5.4e-05	73100	1220	–	–	–	–
B4	985	11	16	19	926	36	33	1.4	1.03	0.000197	192000	1.48	0.000299	203000	650	–	–	–	–
B5	1190	-1	23	32	1130	22	17	–	–	–	–	–	–	–	160	8.9	30	21.9	39.7
B6	–	–	–	–	–	–	–	1	11.8	0.000779	65900	12.1	0.00111	92200	–	–	–	–	–

From patent publication US20190092856A1 (published 2019)
